Assay results as given in patent US7067474B1, “Agents for treating human illnesses based on β-catenin, and the production and use thereof” (Max-Delbruck-Centrum fur Molekulare Medizin, priority 1998, dated 2006).

Legend:
[1] = biological target: human APC amino acids Ser1259-Asp1400 (APC 20 amino acid repeats) fused to Lex-A (vector BTM 116) (human); experiment: yeast 2-hybrid, β-galactosidase reporter; percent of wild type β-catenin
[2] = biological target: conductin amino acids Ala342-Arg465 fused to Lex-A (vector BTM 116) (UniProt P0A7C2); experiment: as above
Sequence of conductin amino acids Ala342-Arg465 fused to Lex-A (vector BTM 116) (P0A7C2 other isoform, or with tags, fused parts or gaps limits assumed, form in doubt): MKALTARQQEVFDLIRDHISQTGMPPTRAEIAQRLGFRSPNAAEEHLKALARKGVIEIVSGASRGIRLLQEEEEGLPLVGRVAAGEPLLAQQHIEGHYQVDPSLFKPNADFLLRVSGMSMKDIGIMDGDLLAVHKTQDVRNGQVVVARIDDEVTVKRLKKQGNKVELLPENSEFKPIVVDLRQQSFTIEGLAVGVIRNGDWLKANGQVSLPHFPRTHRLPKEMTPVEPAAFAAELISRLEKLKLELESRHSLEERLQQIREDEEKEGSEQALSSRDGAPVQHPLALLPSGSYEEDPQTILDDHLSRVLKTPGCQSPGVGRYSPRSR

[3] = biological target: human APC amino acids His1012-Glu1215 (APC 15 amino acid repeats) fused to Lex-A (vector BTM 116) (human); experiment: as above
Sequence of human APC amino acids His1012-Glu1215 (APC 15 amino acid repeats) fused to Lex-A (vector BTM 116) (human) (P0A7C2 other isoform, or with tags, fused parts or gaps limits assumed, form in doubt): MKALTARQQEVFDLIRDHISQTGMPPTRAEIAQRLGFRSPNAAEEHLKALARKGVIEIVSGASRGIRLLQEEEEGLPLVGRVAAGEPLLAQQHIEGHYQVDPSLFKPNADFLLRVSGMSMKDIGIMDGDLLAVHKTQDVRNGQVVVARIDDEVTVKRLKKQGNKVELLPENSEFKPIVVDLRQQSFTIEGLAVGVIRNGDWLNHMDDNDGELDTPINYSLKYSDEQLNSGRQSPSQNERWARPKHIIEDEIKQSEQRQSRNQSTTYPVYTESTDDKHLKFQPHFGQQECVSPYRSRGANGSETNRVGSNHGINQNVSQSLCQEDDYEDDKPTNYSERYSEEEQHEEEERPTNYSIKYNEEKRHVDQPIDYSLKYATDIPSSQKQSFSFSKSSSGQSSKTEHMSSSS

E-cadherin = biological target: T1, E-cadherin (Mus musculus, UniProt P09803); experiment: yeast 2-hybrid: interaction of β-catenin mutants with E-cadherin; format: binding; conditions: alanine mutants
T1 construct: E-cadherin for the amino acids Gin773–Asp884 (cytoplasmatic domain); expressed in transfected cells; host or cells: yeast (two-hybrid, Matchmaker, Clontech)
T1 sequence (P09803 773-884): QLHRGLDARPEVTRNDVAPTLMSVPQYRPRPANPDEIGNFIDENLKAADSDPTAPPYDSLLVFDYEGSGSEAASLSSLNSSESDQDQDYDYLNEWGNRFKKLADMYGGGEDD
Protocol: The mutagenesis of β-catenin in the armadillo repeats 3–8 was carried out by means of the “mutagenesis kit” of the company Clontech according to the producer's record and the mutants were checked by sequencing (FIG. 5). In all mutants the original amino acid was substituted by alanine. For analyzing the interactions the cDNA of human β-catenin (armadillo repeat 3 up to the C-terminal end of the protein) coding for the amino acids Leu218–Leu7 μl or its mutants was cloned into the fusion vector for the activation domain of Gal-4 (pGAD424, Clontech). The cDNA for the binding domains of the interaction partners was cloned into the Lex-A fusion vector BTM 116. To this end, the cDNA of LEF-1 for the amino acids 1–99, conductin for the amino acids Ala342–ARG465; of human APC for the amino acids His1012–Glu1215 (APC 15 amino acid repeats) and for the amino acids Ser1259Asp 1400 (APC 20 amino acid repeats) and E-cadherin for the amino acids Gin773–Asp884 (cytoplasmatic domain) were amplified with the respective primers PCR. The interaction of the Lex-A hybrids with β-catenin and its mutants was quantified by means of the β-galactosidase reporter activity in the yeast 2-hybrid system (report: “Matchmaker”. Clontech) (Tab. 2 and FIG. 6).

LEF-1 = biological target: T2, LEF-1 (Mus musculus, UniProt P27782); experiment: yeast 2-hybrid: interaction of β-catenin mutants with LEF-1; format: binding; conditions: yeast 2-hybrid, alanine mutants
T2 construct: the cDNA of LEF-1 for the amino acids 1–99; expressed in transfected cells; host or cells: yeast (two-hybrid, Matchmaker, Clontech)
T2 sequence (P27782 1-99): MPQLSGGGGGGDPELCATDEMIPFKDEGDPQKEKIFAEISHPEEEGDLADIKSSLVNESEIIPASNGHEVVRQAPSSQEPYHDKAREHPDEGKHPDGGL

[4] = biological target: T3, APC (20 amino acid repeats) (Homo sapiens, UniProt P25054); experiment: yeast 2-hybrid: interaction of β-catenin mutants with APC 20 amino acid repeats; format: binding; conditions: yeast 2-hybrid, alanine mutants
T3 construct: for the amino acids Ser1259Asp 1400 (APC 20 amino acid repeats); expressed in transfected cells; host or cells: yeast (two-hybrid, Matchmaker, Clontech)
T3 sequence (P25054 1253-1394 limits assumed): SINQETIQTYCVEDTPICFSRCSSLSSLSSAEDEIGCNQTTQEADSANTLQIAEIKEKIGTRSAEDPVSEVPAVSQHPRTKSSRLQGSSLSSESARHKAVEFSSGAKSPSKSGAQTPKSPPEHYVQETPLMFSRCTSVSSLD
Method in brief: (§1)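 Alanine-substituted human β-catenin mutants (armadillo repeat 3 to C-terminus, from Leu218) fused to Gal4 activation domain; partner fragments fused to LexA: E-cadherin Gln773–Asp884, APC His1012–Glu1215 or Ser1259–Asp1400, conductin Ala342–Arg465. Interaction quantified by β-galactosidase reporter activity in yeast.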

[5] = biological target: T4, APC (15 amino acid repeats) (Homo sapiens, UniProt P25054); experiment: yeast 2-hybrid: interaction of β-catenin mutants with APC 15 amino acid repeats; format: binding; conditions: yeast 2-hybrid, alanine mutants
T4 construct: of human APC for the amino acids His1012–Glu1215 (APC 15 amino acid repeats); expressed in transfected cells; host or cells: yeast (two-hybrid, Matchmaker, Clontech)
T4 sequence (P25054 1006-1209 limits assumed): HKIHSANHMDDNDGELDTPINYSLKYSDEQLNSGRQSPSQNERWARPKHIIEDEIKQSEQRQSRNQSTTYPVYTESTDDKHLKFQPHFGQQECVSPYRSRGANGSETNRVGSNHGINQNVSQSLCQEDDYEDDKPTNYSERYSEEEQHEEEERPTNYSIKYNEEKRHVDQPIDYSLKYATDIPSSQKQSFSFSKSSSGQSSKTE
Method in brief: as §1

conductin = biological target: T5, conductin (Mus musculus, UniProt O88566); experiment: yeast 2-hybrid: interaction of β-catenin mutants with conductin; format: binding; conditions: yeast 2-hybrid, alanine mutants
T5 construct: conductin for the amino acids Ala342–ARG465; expressed in transfected cells; host or cells: yeast (two-hybrid, Matchmaker, Clontech)
T5 sequence (O88566 343-465 limits assumed): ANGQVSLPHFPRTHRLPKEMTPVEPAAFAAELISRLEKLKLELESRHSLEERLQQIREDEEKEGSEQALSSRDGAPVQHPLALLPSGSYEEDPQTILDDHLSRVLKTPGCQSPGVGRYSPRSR
Method in brief: as §1

Sequence of human APC amino acids Ser1259-Asp1400 (APC 20 amino acid repeats) fused to Lex-A (vector BTM 116) (human) (P0A7C2 other isoform, or with tags, fused parts or gaps limits assumed, form in doubt): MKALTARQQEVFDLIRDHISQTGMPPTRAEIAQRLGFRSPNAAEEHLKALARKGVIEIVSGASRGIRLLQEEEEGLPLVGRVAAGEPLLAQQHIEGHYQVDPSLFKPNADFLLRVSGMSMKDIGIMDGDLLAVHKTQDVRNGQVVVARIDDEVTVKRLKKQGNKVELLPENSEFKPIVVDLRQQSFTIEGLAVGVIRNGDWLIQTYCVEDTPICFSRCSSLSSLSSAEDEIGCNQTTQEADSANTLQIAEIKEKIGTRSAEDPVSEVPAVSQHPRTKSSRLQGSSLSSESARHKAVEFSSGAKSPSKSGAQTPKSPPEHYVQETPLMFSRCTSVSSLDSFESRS

| Molecule | share of the interaction with wild type β-catenin in percent [1] [%] | share of the interaction with wild type β-catenin in percent [2] [%] | share of the interaction with wild type β-catenin in percent [3] [%] | Interaction With E-Cadherin, share of wild type β-catenin interaction (E-cadherin) | Interaction With LEF-1, share of wild type β-catenin interaction (LEF-1) | Interaction With APC-20, share of wild type β-catenin interaction [4] | Interaction With APC-15, share of wild type β-catenin interaction [5] | Interaction With Conductin, share of wild type β-catenin interaction (conductin) [%] |
| --- | --- | --- | --- | --- | --- | --- | --- | --- |
| human β-catenin (Leu218-Leu781) mutant Lys 292 to alanine, Gal-4 activation domain fusion (from UniProt P35222 218-781) | 28 | 5 |  |  |  |  |  |  |
| human β-catenin (Leu218-Leu781) mutant Phe 253 to alanine, Gal-4 activation domain fusion (from UniProt P35222 218-781) | 40 | 17 |  |  |  |  |  |  |
| human β-catenin (Leu218-Leu781) mutant Trp 383 to alanine, Gal-4 activation domain fusion (from UniProt P35222 218-781) | 0 |  | 59 |  |  |  |  |  |
| human β-catenin (Leu218-Leu781) mutant Trp 338 to alanine, Gal-4 activation domain fusion (from UniProt P35222 218-781) | 55 | 20 |  |  |  |  |  |  |
| human β-catenin (Leu218-Leu781) mutant Lys 435 to alanine, Gal-4 activation domain fusion (from UniProt P35222 218-781) |  | 42 | 30 |  |  |  |  |  |
| Lys 292: human β-catenin mutant, Lys 292 substituted by alanine (arm 4) (protein, left off: large carriers; small tags and cut ends) LHNLSHHREGLLAIFKSGGIPALVKMLGSPVDSVLFYAITTLHNLLLHQEGAKMAVRLAGGLQKMVALLNKTNVAFLAITTDCLQILAYGNQESKLIILASGGPQALVNIMRTYTYEKLLWTTSRVLKVLSVCSSNKPAIVEAGGMQALGLHLTDPSQRLVQNCLWTLRNLSDAATKQEGMEGLLGTLVQLLGSDDINVVTCAAGILSNLTCNNYKNKMMVCQVGGIEALVRTVLRAGDREDITEPAICALRHLTSRHQEAEMAQNAVRLHYGLPVVVKLLHPPSHWPLIKATVGLIRNLALCPANHAPLREQGAIPRLVQLLVRAHQDTQRRTSMGGTQQQFVEGVRMEEIVEGCTGALHILARDVHNRIVIRGLNTIPLFVQLLYSPIENIQRVAAGVLCELAQDKEAAEAIEAEGATAPLTELLHSRNEGVATYAAAVLFRMSEDKPQDYKKRLSVELTSSLFRTEPMAWNETADLGLDIGAQGEPLGYRQDDPSYRSFHSGGYGQDALGMDPMMEHEMGGHHPGADYPVDGLPDLGHAQDLMDGLPPGDSNQLAWFDTDL |  |  |  | — (Interactions marked by — correspond to 60–100% of the wild type interaction) | — (Interactions marked by — correspond to 60–100% of the wild type interaction) | 28% | — (Interactions marked by — correspond to 60–100% of the wild type interaction) | 5 |
| Lys 394: human β-catenin mutant, Lys 394 substituted by alanine (arm 7) (protein, left off: large carriers; small tags and cut ends) LHNLSHHREGLLAIFKSGGIPALVKMLGSPVDSVLFYAITTLHNLLLHQEGAKMAVRLAGGLQKMVALLNKTNVKFLAITTDCLQILAYGNQESKLIILASGGPQALVNIMRTYTYEKLLWTTSRVLKVLSVCSSNKPAIVEAGGMQALGLHLTDPSQRLVQNCLWTLRNLSDAATAQEGMEGLLGTLVQLLGSDDINVVTCAAGILSNLTCNNYKNKMMVCQVGGIEALVRTVLRAGDREDITEPAICALRHLTSRHQEAEMAQNAVRLHYGLPVVVKLLHPPSHWPLIKATVGLIRNLALCPANHAPLREQGAIPRLVQLLVRAHQDTQRRTSMGGTQQQFVEGVRMEEIVEGCTGALHILARDVHNRIVIRGLNTIPLFVQLLYSPIENIQRVAAGVLCELAQDKEAAEAIEAEGATAPLTELLHSRNEGVATYAAAVLFRMSEDKPQDYKKRLSVELTSSLFRTEPMAWNETADLGLDIGAQGEPLGYRQDDPSYRSFHSGGYGQDALGMDPMMEHEMGGHHPGADYPVDGLPDLGHAQDLMDGLPPGDSNQLAWFDTDL |  |  |  | — (Interactions marked by — correspond to 60–100% of the wild type interaction) | — (Interactions marked by — correspond to 60–100% of the wild type interaction) | — (Interactions marked by — correspond to 60–100% of the wild type interaction) | — (Interactions marked by — correspond to 60–100% of the wild type interaction) | 42 |
| Arg 457: human β-catenin mutant, Arg 457 substituted by alanine (arm 8) (protein, left off: large carriers; small tags and cut ends) LHNLSHHREGLLAIFKSGGIPALVKMLGSPVDSVLFYAITTLHNLLLHQEGAKMAVRLAGGLQKMVALLNKTNVKFLAITTDCLQILAYGNQESKLIILASGGPQALVNIMRTYTYEKLLWTTSRVLKVLSVCSSNKPAIVEAGGMQALGLHLTDPSQRLVQNCLWTLRNLSDAATKQEGMEGLLGTLVQLLGSDDINVVTCAAGILSNLTCNNYKNKMMVCQVGGIEALVRTVLRAGDAEDITEPAICALRHLTSRHQEAEMAQNAVRLHYGLPVVVKLLHPPSHWPLIKATVGLIRNLALCPANHAPLREQGAIPRLVQLLVRAHQDTQRRTSMGGTQQQFVEGVRMEEIVEGCTGALHILARDVHNRIVIRGLNTIPLFVQLLYSPIENIQRVAAGVLCELAQDKEAAEAIEAEGATAPLTELLHSRNEGVATYAAAVLFRMSEDKPQDYKKRLSVELTSSLFRTEPMAWNETADLGLDIGAQGEPLGYRQDDPSYRSFHSGGYGQDALGMDPMMEHEMGGHHPGADYPVDGLPDLGHAQDLMDGLPPGDSNQLAWFDTDL |  |  |  | — (Interactions marked by — correspond to 60–100% of the wild type interaction) | — (Interactions marked by — correspond to 60–100% of the wild type interaction) | — (Interactions marked by — correspond to 60–100% of the wild type interaction) | — (Interactions marked by — correspond to 60–100% of the wild type interaction) | 36 |
